Assay results reported in patent publication US20110165265A1, “TRAIL VARIANTS FOR TREATING CANCER” (FUNDACIÓ GENÒMICA (CRG), priority 2007, published 2011).
“And” between values parts separate entries of the source, which are not always exact repeats. Equal values may be shown once. “Also recorded” adds a separate entry of the source.

T1: DcR1 (Homo sapiens, UniProt O14798)
T1 construct: soluble, recombinant DcR1-Ig (sDcR1) and DcR2-Ig (sDcR2); purchased R&D Systems
T1 sequence (O14798 26-236 limits assumed): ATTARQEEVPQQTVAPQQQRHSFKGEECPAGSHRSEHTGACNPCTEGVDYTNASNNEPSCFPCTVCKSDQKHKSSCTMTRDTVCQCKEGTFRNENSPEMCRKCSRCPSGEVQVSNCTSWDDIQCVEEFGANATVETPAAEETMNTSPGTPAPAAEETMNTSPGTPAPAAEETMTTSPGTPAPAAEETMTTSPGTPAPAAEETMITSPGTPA

B1: wtTRAIL: wild-type soluble recombinant human TRAIL, amino acids 114-281 (SEQ ID NO: 3) (protein, listed as Homo sapiens)
chain: MVRRGRVAAHTGTRGRSNTSSNSKNKAGRKNSWSSRSGHSSNHRNGVHKGYYYSTYRKNTKNDKMVYYKYTSYDMKSARNSCWSKDAYGYSYGGKNDRVSVTNHDMDHASGAVG
modifications: TRAIL 114-281
B2: D269HE195R: rhTRAIL (114-281) carrying mutations D269H and E195R; DR5-selective TRAIL variant (protein)
chain: MVRERGPQRVAAHITGTRGRSNTLSSPNSKNEKALGRKINSWESSRSGHSFLSNLHLRNGELVIHEKGFYYIYSQTYFRFQERIKENTKNDKQMVQYIYKYTSYPDPILLMKSARNSCWSKDAEYGLYSIYQGGIFELKENDRIFVSVTNEHLIDMHHEASFFGAFLVG

Legend:
[1] = tested on: A2780 cells; assay: Microculture tetrazolium cytotoxicity assay in A2780; type: cell-based, human; settings: A2780, 96 h
Protocol: The microculture tetrazolium assay, performed as described earlier^36, was used to measure cytotoxicity. […] In cell viability assays assessing combination treatment with cisplatin, the cells were pre-incubated for 4 h (h) with 2.5 μM cisplatin (inhibitory concentration 20%-IC20), before addition of 0-25 ng/ml TRAIL or TRAIL-DR5.

[2] = tested on: ML-1 cells; assay: Cytotoxicity in ML-1 cells; type: cell-based
Protocol: Colo205 and ML-1 cells were then treated with increasing concentrations of TRAIL or the DR5-specific variants D269H, D269HE195R, and D269H/T214R, and their cytotoxic potential was measured with a 3-(4,5-dimethylthiazol-2-yl)-2,5-diphenyl tetrazolium bromide (MTT) assay.

[3] = tested on: Colo205 cells; assay: Colo205 apoptosis after neutralizing antibodies to DcR1 and DcR2; type: cell-based, human; settings: for dose that induced approximately 50% cell death: Annexin V
Protocol: All graphs are representatives of two independent repeats. […] Induction of apoptosis was measured 3 h post-treatment using Annexin V assay. […] The graphs show the average±SEM of three independent experiments.
Apoptotic cell death was measured 3 h post-treatment using staining Annexin V assay (FIG. 15), as described above. Increase in apoptosis was expressed as fold increase compared to the level of apoptosis caused by the ligands alone, in the absence of the neutralizing antibodies.

[4] = tested on: A2780 cells; assay: Caspase-3 activity and acridine orange apoptosis assays in A2780; type: cell-based, human; settings: for effect of DcR2 blocking antibody on apoptosis induction: A2780; for effect of DR5 siRNA on induced apoptosis: A2780, also with cisplatin
[5] = tested on: Human dermal fibroblasts; assay: MTT viability of human dermal fibroblasts; type: cell-based; settings: 50-500 ng/ml, 24 h
Protocol: (§1) Human dermal fibroblasts were grown in low glucose DMEM (Sigma) supplemented with 10% fetal calf serum, 50 U/ml penicillin and […] streptomycin; human umbilical vein endothelial cells (HUVEC, PromoCell) were cultured in Endothelial Cell Growth Medium with SupplementMix (PromoCell). Fibroblasts and HUVEC cells were seeded at 1.3×10^5 cells/ml 24 h before treatment with increasing concentrations of TRAIL and DR5-selective variants, D269H and D269HE195R (50-500 ng/ml) for 24 h and cell viability was measured using MTT assay, wherein 200 μg/ml MTT (3-(4,5-dimethylthiazo1-2-yl)-2,5-diphenyl-tetrazolium bromide) was added to control and treated cells and incubated for 3 h at 37° C. The reaction was stopped and the purple formazan precipitate formed was dissolved using dimethyl sulfoxide (DMSO) and the colour intensity was measured at 550 nm on a Wallac multilabel counter. The control value corresponding to untreated cells was taken as 100% and the viability of treated samples was expressed as a percentage of the control. (FIG. 15).

[6] = molecular target: T1, DcR1; settings: cited from earlier work
[7] = tested on: Colo205 cells; assay: Cell survival / sensitivity of Colo205; type: cell-based
Protocol: (B) Effect of increasing concentrations of Aspirin on cell viability. (C) Effect of increasing concentrations of 5-Flurouracil on cell viability. (D) Combination therapy with 5 mM Aspirin pre-incubated for 24 h lead to further decreases in cell viability in cells treated with both TRAIL and two of the DR5 mutants. (E) 30 minute incubation of DR5 mutants, were sufficient decrease cell viability which was further augmented when cells were pre-incubated for 24 h with Aspirin. The shorter incubation period lead to a decrease potency of TRAIL alone or in combination with Aspirin. […] (G) 30 min incubation of the DR5 mutant was sufficient to decrease cell viability which was not enhanced by 5-Flurouracil, and once again the decease potency of TRAIL is seen. Proteins are indicated as follows: TRAIL stands for rhTRAIL WT; D269H stands for rhTRAIL carrying mutation D269H; E195R stands for rhTRAIL carrying mutations D269H and E195R; and M1 stands for rhTRAIL carrying mutations D269H, E194I and I196S.
TRAIL-induced cell death as a function of concentration was measured with the MTS assay.

[8] = tested on: Colo205 cells; assay: Kinetics of receptor activation and apoptosis induction, ligand wash-out in Colo205; type: cell-based, human; settings: Colo205, 30 ng/ml; for incubation time to reach 50% of total efficacy: ligand washed out, Annexin V at 240 min
Protocol: Cell death induction was expressed relative to the percentage of death induced after 240 min without washing out the ligands.
The cells were harvested and cell death was quantified with Annexin V labelling (FIG. 16B), as described above. The data was fitted with an interpolating spline using the software MatlabR.
The cells were then incubated to a total of 180 min in normal growth medium and then the level of cell death was determined (FIG. 16C).

[9] = tested on: EM-2 cells; assay: Cytotoxicity in EM-2 cells; type: cell-based
Text: Similar results were obtained by using EM-2 chronic myeloid leukemia cells expressing only the DR4 receptor and lacking the DR5 receptor and by using the ovarian cancer cell line A2780, which expresses DR5 but lacks DR4 on its surface and is relatively insensitive toward TRAIL-induced cell death.

[10] = tested on: A2780 cells; assay: Annexin V apoptosis assay in A2780; type: cell-based, human
[11] = tested on: Caski cells; assay: Cell survival / sensitivity of Caski; type: cell-based
[12] = tested on: human umbilical vein endothelial cells (HUVEC); assay: Viability of HUVEC; type: cell-based; settings: for cell viability: 50-500 ng/ml, 24 h, MTT
Protocol: as §1

| Molecule | cell survival / viability [1] | cell death induction [2] | apoptosis rate enhancement with neutralizing antibodies to both DcR1 and DcR2 ([3]; Colo205) | fold increase in apoptosis with DcR1 neutralising antibody ([3]; Colo205, 3 h) | dose that induced approximately 50% cell death ([3]; Colo205, 3 h) | effect of DcR2 blocking antibody on apoptosis induction [4] | effect of DR5 siRNA on induced apoptosis [4] | cell viability [5] | effect of 5-FU and Aspirin on induced apoptosis ([7]; Colo205) | incubation time to reach 50% of total efficacy [8] | cell viability, single agent [11] | effect of combination with bortezomib [11] | cell viability [12] | also measured |
| --- | --- | --- | --- | --- | --- | --- | --- | --- | --- | --- | --- | --- | --- | --- |
| B1 | dose dependent loss of viability | able to induce cell death | 1.5±0.1 fold | 1.5 fold | ~20 ng/mL | did not enhance apoptosis induction | completely protected | Neither wtTRAIL nor the DR5-selective variants had any effect; also recorded: did not result in a decrease in cell viability | enhanced apoptosis | 60.81 min and 60.8 ± 4.3 min | comparable | increased tumor cell death | Neither wtTRAIL nor the DR5-selective variants had any effect; also recorded: did not result in a decrease in cell viability | reduction of apoptosis-inducing potential in the presence of the decoy receptors ([3]; Colo205): approximately 40%; Kd ([6]; surface plasmon resonance, read-out: binding affinity Kd for DcR1): ~25 nM; incubation time for significant pro-caspase-8 processing ([8]; Western blot): 60 min; cell death ([9]; EM-2, 50 ng/ml): > 80%; cell death ([10]; A2780, highest concentration tested 250 ng/ml): ≤ 24.3±4.5%; cytotoxic effects on noncancerous cells ([12]; 100 ng/ml): no cytotoxic effects were observed |
| B2 | decreased cell survival more effectively than TRAIL | only TRAIL was able to induce cell death; also recorded: hardly any apoptosis | not affected | no increase in apoptosis | ~4 ng/mL | did not enhance apoptosis induction | completely protected | did not result in a decrease in cell viability | enhanced apoptosis | 3.55 min and 3.6 ± 0.4 min | comparable | increased tumor cell death | did not result in a decrease in cell viability | fold increase in apoptosis with DcR2 neutralising antibody ([3]; Colo205, 3 h): no increase of apoptosis; also recorded: no increase in apoptosis; fold increase in apoptosis with neutralizing antibodies to both DcR1 and DcR2 ([3]; Colo205, 3 h): not and not affected; binding capacity to DcR1 ([6]; earlier work referred to): virtually absent; cell viability, single agent ([7]; Colo205): significantly less cell viability than TRAIL; sensitivity, single agent comparison ([7]; Colo205): higher sensitivity; efficient concentration compared to wtTRAIL ([7]; Colo205, MTS dose-response): efficient at a several fold lower concentration than needed for wtTRAIL; effect of 5 or 10 min pre-incubation with wtTRAIL on induced apoptosis [8]: failed to reduce; cell death induction ([9]; EM-2 cells): hardly any apoptosis; apoptosis ([10]; A2780, 10 ng/ml, Annexin V): 30.6±2.5% |
